Assay results taken from paper PMC9439264 (Nature Communications, 2022).
Where “and” joins values, the source holds several entries; their conditions need not be identical. Equal values may be shown once.

Assays:
[1] = target: HA ectodomain of A/Beijing/262/1995 (H1N1), recombinant, with C-terminal thrombin site, foldon and 6-His-tag (Influenza A virus A/Beijing/262/1995 …, strain); test: SPR; conditions: both partners purified
[2] = target: T1, HA trimer of A/Beijing/262/1995 (H1N1), thrombin- and trypsin-treated, for the immune complex (Influenza A virus A/Beijing/262/1995 …); test: cryo-EM structure; 12H5 Fab with thrombin- and trypsin-treated BJ/1995 HA trimer; conditions: both partners purified
T1 construct: copies: 3 + 3

[3] = target: HA ectodomain of A/Beijing/262/1995 (H1N1), recombinant (Influenza A virus A/Beijing/262/1995 …, strain); test: SPR; conditions: both partners purified
[4] = target: HA ectodomain of A/New Caledonia/20/1999 (H1N1), recombinant (Influenza A virus A/New …, UniProt Q6WG00, strain); test: ELISA; conditions: both partners purified
[5] = target: HA of A/New Caledonia/20/1999 (H1N1) virus, in infected MDCK cells (Influenza A virus A/New …, UniProt Q6WG00, strain); test: immunostaining of cells or tissue; conditions: one partner purified
[6] = target: HA ectodomain of A/Beijing/262/1995 (H1N1) (Influenza A virus A/Beijing/262/1995 …, strain); test: SPR; conditions: both partners purified
[7] = target: HA of B/Florida/4/2006 (Yamagata) (Influenza B virus B/Florida/4/2006 …, UniProt E1TVD5, strain); test: ELISA; conditions: both partners purified

B1: C12H5, human-mouse chimeric version of mAb 12H5 (variable region of mouse 12H5, human IgG1 constant region) (antibody, V domains shown)
VH: QIQLVQSGPELKKPGETVRISCKASGYTFTKNGMNWVQQAPGKGLKWVGWINTYTGEPSYADDFKGRFAFSLETSASTAYLQINNLKNEDMAAYFCARMVRDAMDFWGQGTSVTVSS
VL: DIVLTQSPASLAVSLGQRATISCKASQSVDFDGYNYLNWYQQKPGQPPKLLIYAASNLESGIPARFSGSGSGTDFTLNIHPVEEEDAATYFCQQSNEDPYTFGGGTKLEIK
notes: also called MAb C12H5; C12H5 IgG; copies: 2 + 2
Q: Which results are given for B1?
A: koff [1]: 0.00089 s⁻¹; kon [1]: 109000 M⁻¹ s⁻¹

B2: 12H5 Fab (mouse antibody) (Fab, V domains shown)
VH: B1 VH
VL: B1 VL
notes: source: papain digestion of mAb 12H5 (mouse ascites, protein A), purified with DEAE-5PW
Q: How did the “stoichiometry N” value [2] turn out when B2 was run?
A: The value was 3 Fab per HA trimer.

B3: C12H5 (human-mouse chimeric version of mAb 12H5) (antibody, V domains shown)
VH: B1 VH
VL: B1 VL
notes: also called chimeric 12H5 monoclonal antibody; MAb C12H5
Q: With B3 as the binder, how does the Kd [3] read?
A: The Kd was 8.1 nM.

Q: Does B3 bind [4]?
A: Result: binds

Q: Does B3 bind [5]?
A: Result: binds

B4: CH65, chimeric version (antibody, V domains shown)
VH: EVQLVQSGAEVKKPGASVKVSCKASGYTFTDYHINWVRQAPGQGLEWMGWIHPNSGDTNYAQKFQGWVTMTRDTAISTAYMEVNGLKSDDTAVYYCARGGLEPRSVDYYYYGMDVWGQGTTVTVSS
VL: SVLTQPPSVSVAPGQTARITCGGNDIGRKSVHWNQQKPGQAPVLVVCYDSDRPSGIPERFSGSNSGNTATLTISRVEAGDEADYYCQVWDSSSDHVIFGGGTKLTVL
Q: Does B4 bind [4]?
A: Result: binds

B5: C12H5 (chimeric 12H5 monoclonal antibody: variable region of mouse 12H5, human IgG1 constant region) (antibody, V domains shown)
VH: B1 VH
VL: B1 VL
notes: also called MAb C12H5; source: CHO cells, transient transfection, purified from culture media (MAbselect Sure)
Q: What does the source list for B5?
A: Kd [6]: 8.85 nM; koff [6]: 0.0007 s⁻¹ and 0.00089 s⁻¹ and 0.00108 s⁻¹; kon [6]: 109000 M⁻¹ s⁻¹ and 122000 M⁻¹ s⁻¹ and 95300 M⁻¹ s⁻¹; binding result [7]: no binding
